In patent US20240084262A1, “METHODS FOR DIFFERENTIATION OF PANCREATIC EXOCRINE CELLS FROM HUMAN INDUCED PLURIPOTENT STEM CELLS” (CEDARS-SINAI MEDICAL CENTER, priority 2020, published 2024):
“Also recorded” adds a separate entry of the source.

Experiments:
[1] = test system: iPSC-derived pancreatic progenitors; experiment: Acinar differentiation of iPSC-derived pancreatic progenitors (ICC); assay type: cell-based, human; details: for PDX1 levels / expression / amylase positive clusters / cells: Notch modulation in the presence of FGF10
Method: Using the same DMEM base media, cells were then treated daily for seven days with XXI, FGF10, Noggin, Nicotinamide, and Murine Wnt3a (Peprotech). By the end of this stage, cell clustering could be seen.
Planar fixed samples were fixed with 4% paraformaldehyde in PBS for 15 minutes. Following this, they were washed three times with PBS and then incubated with 10% donkey serum with 0.1% Triton-X for one hour. Primary antibodies diluted in the 10% blocking serum were added, and the samples were let incubate for three hours at room temperature or overnight at 4 C. From here, the samples were washed three times for five minutes each with 0.1% TWEEN in PBS. Secondary antibodies diluted at 1:1000 in the blocking serum were added and the samples were allowed to sit one hour at room temperature. Three rounds of five-minute washes with PBS were performed before Hoechst was added at a 1:2000 dilution in PBS. After a 15-minute room temperature incubation, samples were washed with PBS three times before being imaged.
We performed an experiment comparing the use of notch inhibitor XXI vs notch activator sDLL-1 with FGF10. […] We added Wnt3a as it is important.

[2] = test system: iPSC-derived pancreatic progenitors; experiment: iPan Ductal maturation/specification (qPCR, ICC); assay type: cell-based, human
Method: After 1 day of Phase III, on Day 7, cells were single cell dissociated with TrypLE for 3-6 minutes, washed and seeded at 33% confluency (9.5×10^4 cells/cm^2) in Phase III media plus 10 μM Rho kinase Inhibitor. On Day 8 onwards, cells were treated with Phase IV media—addition of FGF10 (25 ng/ml), EGF (50 ng/ml), and sDLL-1 (25 ng/ml, Peprotech). The base media for phase III and IV consists of DMEM, lx Pen-Strep, 1×B27 without Vitamin A (Thermo Fisher), and Vitamin C (250 μM).
For organoids, Cell Recovery Solution (Corning) was added for an hour in 4° to remove Matrigel then washed 3× with PBS. Total RNA was isolated with RLT buffer (Qiagen), syringed with 23 G needle, then extracted with RNeasy Micro Kit (Qiagen) according to the manufacturer's instructions. The concentration and the purity of RNA was determined with NanoDrop. 1-2 μg RNA was reverse transcribed to cDNA High-Capacity cDNA Reverse Transcription kit (Thermo Fisher). Real-time qPCR was performed (technical replicates, n=3-4) using SYBR Master Mix (Applied Biosystems, #4472952) and specific primer sequences to each gene (Table 1), on a CFX384 Real Time system (Bio-Rad). Human RPL13 was used as the reference gene and relative expression was determined using 2-ΔΔ Ct method.
Planar cultures were fixed with 4% PFA for 15 minutes, washed with PBS and then blocked overnight at 4° C. with 10% donkey serum containing 0.1% Triton-X100. After overnight incubation with primary antibodies at 4° C., cells were washed with 0.1% TWEEN-20 3× for 5 min, incubated with secondary antibodies for an hour at RT, and finally incubated with Hoechst 33342 (1:2000 dilution) for 15 minutes for nuclear counterstaining.
To optimize the ductal maturation phase, the effect of dissociating pancreatic progenitors on Day 7 and adding growth factor EGF and the Notch activating ligand sDLL-1 to the cultures was explored. FGF10 was also added at this time to increase proliferation of pancreatic cells. Based on our results, we incorporated a dissociation step prior to initiating EGF and Notch signaling in our defined iPan Ductal protocol (FIG. 2A). Dissociation of pancreatic progenitor cells inhibited acinar differentiation by Day 21 (FIG. 2B).

[3] = sDLL1 for 2 weeks started late, at pancreatic endoderm stage, Day 21

Molecule: C[C@H](NC(=O)Cc1cc(F)cc(F)c1)C(=O)N[C@H]1N=C(c2ccccc2)c2ccccc2N(C)C1=O [XXI]
- PDX1 levels / expression [1]: reduces PDX1 expression; also recorded: lowest PDX1 levels
- amylase positive clusters / cells [1]: increases islands of amylase positive cells; also recorded: most increase in amylase positive clusters

Molecule: EGF: growth factor EGF
- survival and confluency (immunocytochemistry) ([2]; dissociated cells exposed to EGF): increased survival and confluency
- levels of ductal markers KRT19, HNF1B, SOX9, FOXA2 ([2]; dissociated cells with exposure to EGF): increased levels of ductal KRT19, HNF1B, SOX9, and FOXA2 markers

B1: FGF10: growth factor added to increase proliferation of pancreatic cells; activates PDX1 (protein, UniProt O15520 38-208, looked up)
Fibroblast growth factor 10: QALGQDMVSPEATNSSSSSFSSPSSAGRHVRSYNHLQGDVRWRKLFSFTKYFLKIEKNGKVSGTKKENCPYSILEITSVEIGVVAVKAINSNYYLAMNKKGKLYGSKEFNNDCKLKERIEENGYNTYASFNWQHNGRQMYVALNGKGAPRRGQKTRRKNTSAHFLPMVVHS
- CTRC and amylase positive cell expression ([1]; FGF10 tested at 0, 2.5, 20 and 50 ng/mL, result for 20 ng): most CTRC and amylase positive cell expression

B2: sDLL1: Notch-activating ligand; extracellular signaling domain of DLL1 (protein, UniProt O00548 18-545, looked up)
extracellular domain: QVWSSGVFELKLQEFVNKKGLLGNRNCCRGGAGPPPCACRTFFRVCLKHYQASVSPEPPCTYGSAVTPVLGVDSFSLPDGGGADSAFSNPIRFPFGFTWPGTFSLIIEALHTDSPDDLATENPERLISRLATQRHLTVGEEWSQDLHSSGRTDLKYSYRFVCDEHYYGEGCSVFCRPRDDAFGHFTCGERGEKVCNPGWKGPYCTEPICLPGCDEQHGFCDKPGECKCRVGWQGRYCDECIRYPGCLHGTCQQPWQCNCQEGWGGLFCNQDLNYCTHHKPCKNGATCTNTGQGSYTCSCRPGYTGATCELGIDECDPSPCKNGGSCTDLENSYSCTCPPGFYGKICELSAMTCADGPCFNGGRCSDSPDGGYSCRCPVGYSGFNCEKKIDYCSSSPCSNGAKCVDLGDAYLCRCQAGFSGRHCDDNVDDCASSPCANGGTCRDGVNDFSCTCPPGYTGRNCSAPVSRCEHAPCHNGATCHERGHRYVCECARGYGGPNCQFLLPELPPGPAVVDLTEKLEGQGGPFPW
modifications: extracellular domain
notes: extracellular signaling domain of DLL1
- PDX1 levels / expression [1]: does not increase the Amylase positive clusters or decrease PDX1 levels
- amylase positive clusters / cells [1]: does not increase the Amylase positive clusters
- C-Peptide+ endocrine cells [2, 3]: C-Peptide was elevated; also recorded: higher amount of C-Peptide^+ endocrine cells
- ductal markers [2, 3]: no increase in ductal markers
